Among the data in patent publication US20260285956 (published 2026) are Kd values, retold here.

For this assay, the target named is soluble TDP-43 (human). Put plainly: SPR.
soluble TDP-43 (human), sequence (chain, as listed by the source): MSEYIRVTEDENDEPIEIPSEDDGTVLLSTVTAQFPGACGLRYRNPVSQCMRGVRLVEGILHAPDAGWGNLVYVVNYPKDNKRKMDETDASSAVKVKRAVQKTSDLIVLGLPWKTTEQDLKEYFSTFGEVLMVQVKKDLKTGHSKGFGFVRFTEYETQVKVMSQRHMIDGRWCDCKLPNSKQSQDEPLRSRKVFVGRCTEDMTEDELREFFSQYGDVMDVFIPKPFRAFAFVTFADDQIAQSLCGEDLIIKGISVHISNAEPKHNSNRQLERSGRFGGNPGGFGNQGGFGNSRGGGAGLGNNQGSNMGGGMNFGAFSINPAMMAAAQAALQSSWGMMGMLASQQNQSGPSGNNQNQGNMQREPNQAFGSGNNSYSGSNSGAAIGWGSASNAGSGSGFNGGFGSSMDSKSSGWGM

B1: ACI-7071-810H12-Ab1 (antibody, V domains shown)
VH: QVQLQQSGAELVRPGASVKLSCKALDYTFTDYEMHWVKQTPVHGLEWIGAVHPRSGGTVYNQRFRAKATLTADKSSSTAFIELSSLTSEDSAVYFCTYYGYDEIYWGQGTLVTVSA
VL: DVVMTQISFSLPVSLGDQASISCRSSQSLVHSDGTTYLHWYLQKPGQSPKLLIYKVSNRFSGVPDRFSGSGSGTDFTLKISRVEAEDLGVYFCSQSTHAPYTFGGGTKLEIK
As a reminder, the Kd is the free concentration of one partner at which half of the binding sites on the other are occupied at equilibrium, for simple one-to-one binding. Regarding B1, binding was put at a Kd of 0.38 nM.

B2: ACI-7071-806H5-Ab1 (antibody, V domains shown)
VH: DVKLEDSGGGLVQPEGSMKLSCVASGFIFSDAWMAWVRQSPEKGLEWVAEIRGRASSHATYYAESVKGRFTISRDDSKSSVYLQMNSLRAEDTGVYYCTRGVNYWGQGTALTVSS
VL: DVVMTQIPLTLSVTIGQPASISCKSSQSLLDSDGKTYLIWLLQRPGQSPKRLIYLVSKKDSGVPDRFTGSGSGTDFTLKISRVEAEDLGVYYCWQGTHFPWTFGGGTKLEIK
B2 yielded a Kd of 0.2 nM.

B3: ACI-7071-801H1-Ab1 (antibody, V domains shown)
VH: EVQLQQSGPELVKPGASVKISCKTSGYTFTEYTMHWVKQSHGQSLEWIGGIHPNNGGTIYNQKFKGRATLTVDKSSSTAYMEFRSLTSDDSAVYYCASPCWGQGTSVTVSS
VL: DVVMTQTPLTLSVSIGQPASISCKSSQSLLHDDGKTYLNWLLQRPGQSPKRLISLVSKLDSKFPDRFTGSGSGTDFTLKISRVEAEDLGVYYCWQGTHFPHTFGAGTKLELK
With B3, the dissociation constant Kd stood at 0.75 nM.

B4: ACI-7071-704H9-Ab1 (antibody, V domains shown)
VH: EVQLVESGGDLVKPGGSLKLSCAASGFTFANYAMSWIRQTPEKRLEWVATISGGGLYINYPANLKGRFTISRDNAKNNLYLQMSHLKSEDTAMYYCVKDRGQNWSWFAYWGQGTLVTVSA
VL: QLVLTQSSSASFSLGASAKLTCTLSSQHSTYTIEWYQQQPLKPPKYVMELEKDGSHSTGDGIPDRFSGSSSGADRYLSISNIQPEDEAIYICGVGDTIKEQFVYVFGGGTKVTVL
Molecule B4 showed an equilibrium dissociation constant (Kd) of 0.23 nM.

B5: ACI-7071-707A6-Ab1 (antibody, V domains shown)
VH: EVQLVESGGVLVKPGGSLKLSCAASGFIFSSFSMSWVRQNPEKRLEWVATISAAGRYIYYPDNVKGRFTISRDNAKNNLYLYMSHVRSEDTAIYYCVKDRGLNWSWFAYWGQGTLVTVSA
VL: QLVLTQSSSASFSLGASAKLTCTLSSQHSTYTIEWYQQQPLKPPKYVMELKKDGSHSTGDGIPDRFSGSSSGADRYLSISDIQPEDEAVYICGVGDTIKEQFVYVFGGGTKVTVL
The molecule B5 displayed a Kd of 0.11 nM.
